Reference: article PMC3477023, “Microbial β-glucosidases from cow rumen metagenome enhance the saccharification of lignocellulose in combination with commercial cellulase cocktail” (Biotechnology for Biofuels, 2012)

Tests used:
Assay in all cases: purified protein
Conditions in all cases: 40°C, pH 5.6, 50 mM sodium acetate
[1] = substrate: O=[N+]([O-])c1ccc(O[C@@H]2O[C@H](CO)[C@@H](O)[C@H](O)[C@H]2O)cc1
[2] = substrate: O=[N+]([O-])c1ccc(O[C@@H]2O[C@H](CO)[C@@H](O[C@@H]3O[C@H](CO)[C@@H](O)[C@H](O)[C@H]3O)[C@H](O)[C@H]2O)cc1; assay type: biochemical, uncultured bacterium SRF2
[3] = substrate: O=[N+]([O-])c1ccc(O[C@@H]2O[C@H](CO)[C@@H](O[C@@H]3O[C@H](CO)[C@@H](O)[C@H](O)[C@H]3O)[C@H](O)[C@H]2O)cc1; assay type: biochemical, uncultured bacterium LAB25
[4] = substrate: O=[N+]([O-])c1ccc(O[C@@H]2O[C@H](CO)[C@@H](O[C@@H]3O[C@H](CO)[C@@H](O)[C@H](O)[C@H]3O)[C@H](O)[C@H]2O)cc1; assay type: biochemical, uncultured bacterium LAB20

B1: SRF2g14 (uncultured bacterium SRF2) (protein)
chain: MKKTLFFAFGMATLMMGCTSADKVTKNTLNQEEVMNRLSLEDKAHFVIGVGMAGFSGDDAVIGATKNLVPGAAGTTYPLDSLGIPAVVLADGPAGLRIDATREGDSATYYCTHFPIGTLLASTWNQKLVEEVGQAIGEEVKEYGADVLLAPALNIMRNPLCGRNFEYYSEDPVVAGKTASAYITGVQKNDVGTSIKHFAANNQETNRMNTDAHISQRALREIYLKGFEIAIKESKPWTVMTSYNYINGVYTSESKDLVQTILRDEWGYEGTVMTDWFGGKDGAKQMWAGNDMLQPGKAEQFDSIVAGVKSGKLDEADLDRNIQRILNLVEKSPRFQGYQYSNKPDLKAHAAVTRQSAAEGMVLMKNNEVLPLKENVKNVALYGCTSYDFIAGGTGSGNVNHAYVVSLLDGLKNGGYNVSDELKSAYEKYIADCKEARKKEIEEMAKKDKQAAMLARFMPGTLPAEKQFSSEELAKQADASDLAVITIGRISGEFLDRKAADFNLNDSEMKLIQQVCEVYHKVGKQVVVLLNIGGVIETASWKELPDAILCAWQAGQEGGNSVVDVLSGKQSPSGKFTMTWPVKFTDAYSSKNFPIDEDPKIDMMNQGQKGNVKNVDYADYEEDIYVGYRYFDSFDVPVSYPFGFGLSYTTFEYSDAKISQKNDIYDVTVTVKNTGKFEGKEVVELYISAPDNKAANKPSKELKAFAKTRSLKPGESETLTLSVTAPELASFDEAASAWVVAEGEYQFLVGASSQDIKATLTANAKSFQIKVNDVMKPQVQMNLLKR
notes: gene 2361 bp (786 residues calculated), full ORF from ATG with native signal region in pET-41 Ek/LIC, E. coli BL21(DE3), Ni-NTA, tags removed by enterokinase
Q: What does the source list for B1?
A: Km [1]: 34 ± 3 µM; kcat [1]: 0.37 s⁻¹; kcat/Km [1]: 10800 M⁻¹ s⁻¹; Km [2]: 480 ± 54 µM; kcat [2]: 0.19 ± 0.36 s⁻¹; kcat/Km [2]: 416 M⁻¹ s⁻¹

B2: LAB25g2 (uncultured bacterium LAB25) (protein)
chain: MKKLLTICFVATTFGMTMNAQPKLSADNIDEVLKAMTLEEKAKLLVGGANNFFSANAVVGGEATLVAGAAGTTPEIARLGIPATVLTDGPAGVRINPTRRGTDQTFYATAFPIGSCLASTWNTELVGQVGQAIGNETKEYRCDVILGPGMNLHRNPLCGRNFEYYSEDPFLTGKIAAAYINGVQKEDVGVSAKHFAVNSQETDRTSVDERLSQRAAREIYLRGFEIAVRESNPWTIMASYNIINGTHAMGNRDLLTSILRDDWGYKGIVMTDWIGIRQGLTTISEVQAGNDLMEPGQPAQVQEIIDGVKNGKLAIADVDRNVRRMLEYIVKTPSFRKYPASNKPDFTAHAAITRQSANEGIVLLKNNGTLPWKNIKSVALFGENSYDFLSGGTGSGCVHPPYVVDMLEGLKNAGIKSSETLTDIYRKYIAYARVKFQAERHPAKWFQTEAMGQQKYPEISLSPIAVEKEVRGADAAIITIGRQAGEGIDRDIETEFNLIPEERQLIFDVCQAFHAAGKPVVVIINSGSVIETASWSGYPDAILCAWQPGMEGGNSIADLLTGKVNPSGKLTMTWPIAATDHASTKNFPGALDDYSLMQMLGNGQPIPGHAYTNHEEDIYVGYRFFDTFKRDVAYPFGYGLSYTTFEYSKPVVKAKGQTVEVSITVKNSGSVSGKEVAQVYVAAPKGRLEKPAQELKAFAKTRELQPGESQTLTMTIPVRNLASFDEANSQWLTEAGTYTFRIGANSRDIRCTAEAKLAEYTEQTSNALAPKQKLNLLKQ
notes: gene 2340 bp (779 residues calculated), full ORF from ATG with native signal region in pET-41 Ek/LIC, E. coli BL21(DE3), Ni-NTA, tags removed by enterokinase
Q: How did the Km [1] turn out when B2 was run?
A: 450 ± 60 µM

Q: And the kcat [1]?
A: 0.41 s⁻¹

Q: And the kcat/Km [1]?
A: 920 M⁻¹ s⁻¹

Q: And the Km [3]?
A: 390 ± 30 µM

Q: And the kcat [3]?
A: 0.17 ± 0.36 s⁻¹

Q: What about the kcat/Km [3] of the same protein?
A: 438 M⁻¹ s⁻¹

B3: LAB20g4 (uncultured bacterium LAB20) (protein)
chain: MKKIMLLSATVLALAGCKGDPQLGKDSVDKVLKAMTLEEKVHFVIGTGMAGFGGESAVVGATKNIVPGAAGTTYPIERLGIPSIVLADGPAGLRIDPTREGDENTYYCTHFPIGTLLASTWNQELVESVGKAMGEEVHEYGADVYLAPALNIHRHPLNGRNFEYYSEDPVVAGKTAAAYVRGVQSNDVGTSIKHFAYNNQETNRTGNNAVISPRAQREIYLKGFEITVKESDPWTVMSSYNKINGTYTSQSRDLITTVLRDEWGFKGLVMTDWFGGDNGAEQIAAGNDMLQPGTDLQYQQIMDAIKDGSLSEDELNICVRRCLELVARSPKAKGYAYSNKPDLKAHAAVTRQSALEGMVLLENNGVLPLKDVKNVAVFGCTSFDFIAGGTGSGNVNRAYTVSLLDGLKNAGFNVDESNKEATLKHIADEDAAFKASLTDQLSAFYPTPRPSELVPSAAELAASARANDVAIITFGRNSGEFFDRTSADFSLSAKEKELLAKVTAAFHAKGKKVVVVLNVGGVIETASWKSVPDAILLAWQAGQEGGNSVTDILTGAKSPSGKLPMTFPVNLMDHASSANFPIDSDTGVYFTNRREDVGQKDVDVTKYEEGIYVGYRWFDKQNLPVSYPFGYGLSYTTFEYSAPAVANDGKTVTAKVTVKNTGSVAGKEAVQLYVSAPAGTLDKPVKELKAYGKTKELAPGESQELTLTFPTSELASFDEEASAWKVDAGTYTFQFGASSRDVRCTATAEAAASETPANRVLLMK
notes: gene 2295 bp (764 residues calculated), full ORF from ATG with native signal region in pET-41 Ek/LIC, E. coli BL21(DE3), Ni-NTA, tags removed by enterokinase
Q: With B3 as the protein, how does the Km [1] read?
A: 30 ± 3 µM

Q: And the kcat [1]?
A: 0.88 s⁻¹

Q: What about the kcat/Km [1] of the same protein?
A: 29500 M⁻¹ s⁻¹

Q: What about the Km [4] of the same protein?
A: 1470 ± 130 µM

Q: What about the kcat [4] of the same protein?
A: 0.12 ± 0.2 s⁻¹

Q: And the kcat/Km [4]?
A: 82.7 M⁻¹ s⁻¹

B4: SRF2g18 (uncultured bacterium SRF2) (protein)
chain: MRKSIHQISLVILAVVAMCGYSLRMKAQQLKAENIDEVVKAMTLEEKCHMVLGRGMHFNDEAKFPGTAGSTFSIARLGVPETYCADSQQGLRMNATRAWDHNDYYPTDFVASMTLASTWDREAAFKVGQGIGNEVREFGLDWILSPAMNLIRNPLCGRNHEYYSEDPYLSGTIAAGYVNGVQSEGTAACPKHFVANNQETNRNNNVSQVSQRALREIYLKAFEIMVKESNPWTIMTSYNKLNGPYAVQNHDLLTTIVRNEWGWKGMYVSDWNAGDDAVAAMLAGNDMLQPGQDKQYQAILEAAQSGKLPMEVIDANVKRILEYVVKTHNFKGYKYNNEPDLKAHAKVVREVGADGIVLLKNSGVLPLVGKRVALFGCTSYDWISGGSGFGGTSVGHYTVSLIEGMRSVGYEIYKPLIAAYTQHIAAEEKRLFPNGRPAFSLMPPARADEKQFTADELNAAIEGSDVAIISLGRKSGEAADRSESDFYLKDGEAQLIKAVSDAYHAKGKQVVVLLDICSPIDVASWQNQVDALVCTWQGGQESGFSVADVLSGKVNPSGKLPMTFQIKYGDAYADKNFPANVDDKTLGAMFMWGYDKDNTPKERQLQANIDFTNYEEDIYVGYRYFDSFSKPVAYPFGFGLSYTTFAYENLSVSETDGVFTVKVDVKNTGNKAGRNVVELFVAAPNSKQLNKPEKELRNYAKTSLLKPGQTETVIMLVKTEDLASFNEKASAWKTDAGVYTFMICSSANQIEVQTSAKVKAWTKKVNNVMKPKLKLNLLKR
notes: gene 2343 bp (780 residues calculated), full ORF from ATG with native signal region in pET-41 Ek/LIC, E. coli BL21(DE3), Ni-NTA, tags removed by enterokinase
Q: What does the source list for B4?
A: Km [1]: 1730 ± 4 µM; kcat [1]: 0.27 s⁻¹; kcat/Km [1]: 159 M⁻¹ s⁻¹; Km [2]: 480 ± 72 µM; kcat [2]: 0.11 ± 0.22 s⁻¹; kcat/Km [2]: 232 M⁻¹ s⁻¹
